According to US20240141059A1 (Bristol-Myers Squibb, published 2024):
Read-outs that look alike come from different tables or passages of the source.

How the values were obtained:
[1] = biological target: T1, human CD73 on cells (human, UniProt P21589 27-549); assay: cell-based or functional assay
T1 sequence (looked up): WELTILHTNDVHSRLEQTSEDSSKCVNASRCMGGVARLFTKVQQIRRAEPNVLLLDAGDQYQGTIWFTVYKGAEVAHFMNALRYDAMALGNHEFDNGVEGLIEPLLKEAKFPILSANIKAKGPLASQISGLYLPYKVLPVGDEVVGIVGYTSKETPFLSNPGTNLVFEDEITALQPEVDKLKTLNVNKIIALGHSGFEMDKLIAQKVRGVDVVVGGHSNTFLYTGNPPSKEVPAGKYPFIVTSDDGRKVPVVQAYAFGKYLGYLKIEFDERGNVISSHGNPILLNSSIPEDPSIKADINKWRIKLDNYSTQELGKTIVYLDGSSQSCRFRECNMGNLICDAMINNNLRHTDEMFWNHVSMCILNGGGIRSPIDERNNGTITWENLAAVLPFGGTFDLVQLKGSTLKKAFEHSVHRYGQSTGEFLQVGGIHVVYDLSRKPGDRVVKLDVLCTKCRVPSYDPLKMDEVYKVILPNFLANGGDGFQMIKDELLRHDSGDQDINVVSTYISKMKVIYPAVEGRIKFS

[2] = biological target: T1, human CD73 on cells; assay: cell-based or functional assay; remark: listed apart in the source
[3] = biological target: T2, hCD73-his (human, UniProt P21589 26-546); assay: SEC-MALS, target:mAb 1:1, 2.5 uM + 2.5 uM
T2 construct: range 26-546; also called full length extracellular domain of human-CD73
T2 sequence (looked up): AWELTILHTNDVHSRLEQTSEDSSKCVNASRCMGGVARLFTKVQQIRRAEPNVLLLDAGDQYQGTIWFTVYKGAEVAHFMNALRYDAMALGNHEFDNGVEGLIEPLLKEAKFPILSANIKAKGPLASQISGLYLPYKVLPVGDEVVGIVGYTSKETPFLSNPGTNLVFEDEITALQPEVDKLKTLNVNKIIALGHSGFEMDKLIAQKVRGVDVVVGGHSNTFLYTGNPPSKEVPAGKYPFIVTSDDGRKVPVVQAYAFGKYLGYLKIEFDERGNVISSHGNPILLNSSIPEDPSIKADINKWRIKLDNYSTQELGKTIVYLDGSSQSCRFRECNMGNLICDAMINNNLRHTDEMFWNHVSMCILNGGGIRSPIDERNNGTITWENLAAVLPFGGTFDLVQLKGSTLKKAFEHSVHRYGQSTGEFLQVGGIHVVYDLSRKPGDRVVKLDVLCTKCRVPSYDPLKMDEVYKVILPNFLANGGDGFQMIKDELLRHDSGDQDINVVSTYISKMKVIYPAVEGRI
Experimental: The structure and oligomeric state of CD73/antibody complexes in solution were examined by SEC-MALS and DLS.
(§1) The oligomeric state of CD73/antibody complexes were examined by size-exclusion chromatography coupled to an in-line multi-angle light scattering detector (SEC-MALS). Isocratic separations were performed on a Shodex PROTEIN KW-803 column connected to an Prominence Shimadzu UFLC in buffer containing 200 mM K₂HPO₄, 150 mM NaCl, pH 6.8, containing 0.02% Na azide (0.1 μm filtered) running at 0.5 mL/min. Samples were injected onto the column using a SIL-20AC Prominence Shimadzu® autosampler, and data were obtained from three online detectors connected in series: a Prominence SPD-20AD diode array UV/vis spectrophotometer followed by a Wyatt miniDAWN™ TREOS Multi-Angle Light Scattering Detector then a Wyatt Optilab T-rEX Refractive Index Detector® instrument. Data were collected and analyzed using Astra® (Wyatt) and Labsolutions® (Shimadzu) software.

[4] = biological target: T2, hCD73-his; assay: SEC of equimolar mAb + hCD73-his
Experimental: as §1
CD73.4 antibodies having the heavy chain constant regions set forth in Table 14 were also tested for formation of high molecular weight complexes by SEC-MALS and DLS experiments, as described in Example 3.

[5] = biological target: T1, human CD73 on cells; assay: cell-based or functional assay; remark: listed apart in the source
[6] = biological target: T3, human GITR (human, UniProt Q9Y5U5 26-241); assay: cell-based or functional assay
T3 sequence (looked up): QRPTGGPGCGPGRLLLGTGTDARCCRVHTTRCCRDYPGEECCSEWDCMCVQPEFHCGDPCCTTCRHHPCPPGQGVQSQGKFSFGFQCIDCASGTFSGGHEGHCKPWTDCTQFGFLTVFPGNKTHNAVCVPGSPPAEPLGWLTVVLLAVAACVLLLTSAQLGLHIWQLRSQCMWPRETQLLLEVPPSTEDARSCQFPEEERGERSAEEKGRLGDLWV

B1: CD73.4-IgG2-C219S (antibody)
heavy: QVQLVESGGGVVQPGRSLRLSCAASGFTFSNYGMHWVRQAPGKGLEWVAVILYDGSNKYYPDSVKGRFTISRDNSKNTLYLQMNSLRAEDTAVYYCARGGSSWYPDSFDIWGQGTMVTVSSASTKGPSVFPLAPCSRSTSESTAALGCLVKDYFPEPVTVSWNSGALTSGVHTFPAVLQSSGLYSLSSVVTVPSSNFGTQTYTCNVDHKPSNTKVDKTVERKSCVECPPCPAPPVAGPSVFLFPPKPKDTLMISRTPEVTCVVVDVSHEDPEVQFNWYVDGVEVHNAKTKPREEQFNSTFRVVSVLTVVHQDWLNGKEYKCKVSNKGLPAPIEKTISKTKGQPREPQVYTLPPSREEMTKNQVSLTCLVKGFYPSDIAVEWESNGQPENNYKTTPPMLDSDGSFFLYSKLTVDKSRWQQGNVFSCSVMHEALHNHYTQKSLSLSPG
light: not shown
notes: also called CD73.4-IgG2CS; CD73.4-IgG2.3
[1]
  % internalization, Calu6 cells: 88%
  % internalization, H228 cells: 94%
  % internalization, H2030 cells: 89%
  % internalization, HCC15 cells: 94%
  internalization T1/2, Calu6 cells: 6.5 min
  internalization T1/2, H228 cells: 13.8 min
  internalization T1/2, H2030 cells: 3.7 min
  internalization T1/2, HCC15 cells: 3.1 min
[2]
  internalization T1/2, Calu6: 36 min
  internalization T1/2, NCI-H292: 16.6 min
  internalization Ymax, Calu6: 75.6%
  internalization Ymax, NCI-H292: 78.4%
[3]
  MW Peak 1: 3400 kDa
  MW Peak 2: 970 kDa
  MW Peak 3: 480 kDa
[4]
  UV % Peak1 (<12.9 min): 37%
  UV % Peak3 (15.1-16.7 min): 7.7%
  UV % Peak4 (16.7-19.3 min): 28.6%
  UV % Peak5 (>19.3 min): 2.9%

B2: CD73.4-IgG2.3-plusTHT (antibody)
heavy: QVQLVESGGGVVQPGRSLRLSCAASGFTFSNYGMHWVRQAPGKGLEWVAVILYDGSNKYYPDSVKGRFTISRDNSKNTLYLQMNSLRAEDTAVYYCARGGSSWYPDSFDIWGQGTMVTVSSASTKGPSVFPLAPCSRSTSESTAALGCLVKDYFPEPVTVSWNSGALTSGVHTFPAVLQSSGLYSLSSVVTVPSSNFGTQTYTCNVDHKPSNTKVDKTVERKSCVETHTCPPCPAPPVAGPSVFLFPPKPKDTLMISRTPEVTCVVVDVSHEDPEVQFNWYVDGVEVHNAKTKPREEQFNSTFRVVSVLTVVHQDWLNGKEYKCKVSNKGLPAPIEKTISKTKGQPREPQVYTLPPSREEMTKNQVSLTCLVKGFYPSDIAVEWESNGQPENNYKTTPPMLDSDGSFFLYSKLTVDKSRWQQGNVFSCSVMHEALHNHYTQKSLSLSPGK
light: not shown
notes: also called mAb-CD73.4-IgG2.3-plusTHT; CD73.4-Vh-hHC-IgG2.3-plusTHT
[5]
  internalization T1/2, Calu6: 21.3 min
  internalization T1/2, NCI-H292: 17.6 min
  internalization Ymax, Calu6: 81.2%
  internalization Ymax, NCI-H292: 91.4%
[4]
  UV % Peak1 (<12.9 min): 30.6%
  UV % Peak4 (16.7-19.3 min): 33.7%
  UV % Peak5 (>19.3 min): 3.2%

B3: GITR.6.G2 (antibody, human IgG2, kappa)
heavy: QVQLVESGGGVVQPGRSLRLSCAASGFTFSSYGMHWVRQAPGKGLEWVAVIWYEGSNKYYADSVKGRFTISRDNSKNTLYLQMNSLRAEDTAVYYCARGGSMVRGDYYYGMDVWGQGTTVTVSSASTKGPSVFPLAPCSRSTSESTAALGCLVKDYFPEPVTVSWNSGALTSGVHTFPAVLQSSGLYSLSSVVTVPSSNFGTQTYTCNVDHKPSNTKVDKTVERKCCVECPPCPAPPVAGPSVFLFPPKPKDTLMISRTPEVTCVVVDVSHEDPEVQFNWYVDGVEVHNAKTKPREEQFNSTFRVVSVLTVVHQDWLNGKEYKCKVSNKGLPAPIEKTISKTKGQPREPQVYTLPPSREEMTKNQVSLTCLVKGFYPSDIAVEWESNGQPENNYKTTPPMLDSDGSFFLYSKLTVDKSRWQQGNVFSCSVMHEALHNHYTQKSLSLSPGK
light: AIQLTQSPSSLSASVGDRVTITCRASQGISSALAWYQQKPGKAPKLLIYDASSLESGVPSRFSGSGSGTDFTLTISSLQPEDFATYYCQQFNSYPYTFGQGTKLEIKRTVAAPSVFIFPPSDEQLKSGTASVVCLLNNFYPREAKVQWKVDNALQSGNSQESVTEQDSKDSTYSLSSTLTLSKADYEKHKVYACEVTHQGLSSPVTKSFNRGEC
[6]
  NFKB signaling (phospho-p65), CD4+ T cells, EC50: 12.8 nM
  NFKB signaling (phospho-p65), CD4+ T cells, Emax: 69%
  NFKB signaling (phospho-p65), CD8+ T cells, EC50: 9 nM
  NFKB signaling (phospho-p65), CD8+ T cells, Emax: 85%
